Experimental data published in paper PMC12196904.

Target: T1, OsARF25 B3 domain (OsARF25 123-243-GST) (Oryza sativa) (UniProt Q2QM84)
T1 sequence: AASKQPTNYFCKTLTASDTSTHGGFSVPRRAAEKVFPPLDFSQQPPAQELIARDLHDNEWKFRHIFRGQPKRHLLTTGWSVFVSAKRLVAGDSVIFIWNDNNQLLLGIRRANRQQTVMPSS
Assay: EMSA
Settings: 20 uL: 50 ng probe, 2 ug protein, 2 uL 10x buffer (100 mM Tris, 500 mM KCl, 10 mM DTT, pH 7.5) plus 1 uL each of 1 M KCl, 50% glycerol, 0.5 M EDTA

## GAGTTTTATATACATACAGAGCACATGCGGCATCAATGAGCAACAGGGTTTGCATGCGTTGCTGCTGCTTGAGTTCTAGTATTAGTATTTTTATTTCATCTTAATGCTTGAGCCAATAGTTCCTGAGCTGAGACATGTGCAGAAGTATCTCGTCTCGGCCTTGATTGGTGACACTGCTCGTCATGATCCAAGGGGGTGCTGCCTCAAAATATTCACGGATCGAATTCAAGCTTTTCAATTCATCA (double strand) [proOsOFP04 probe]
  binding: binds

## TGATGAATTGAAAAGCTTGAATTCACTTCACATGCCGGCCACAATTACGGCGTTATTAGGCGGGACATGGGCATAGGAAAACCGGAAAGGTGTCCAAGGCGTTGCAGAGAATGTAGTGTGTCGGTCATAGGCTGCAAGCGAGTGCACTCCCACTTGCACCCAGGGATATATATTATCGTCATGCATGTGCCTTATGCTCTTGTCAAGCAATATTTTTTGGCAAGGCATGTGCTCTGTATGTATATAAAACTC (double strand) [proSG1 probe]
  binding: binds
